Substrate in data set [1]: C=C1C[C@]23C[C@H]1CC[C@H]2[C@@]12CC[C@H](O)[C@@](C)(C(=O)O1)[C@H]2[C@@H]3C(=O)O
As to the kind of experiment: GC-SIM-MS of GA34. In kind it is biochemical, Oryza sativa. Conditions: multimer forms measured separately (monomer, dimer, tetramer); same. From the text: GC-SIM-MS of GA34 on OsGA2ox3 (GA 2-oxidase 3) | The […]/[…]-tetramer affected both the Km and the Vmax values

Substrate in data set [2]: C=C1C[C@]23C[C@H]1CC[C@H]2[C@@]12CC[C@H](O)[C@@](C)(C(=O)O1)[C@H]2[C@@H]3C(=O)O
The experiment in a line: GC-SIM-MS of GA34. In kind it is biochemical, Oryza sativa. Conditions: multimer forms measured separately; Methods print Cys187 instead of C186; same. The text has this: GC-SIM-MS of GA34 on OsGA2ox3 (GA 2-oxidase 3) | whereas the […]/[…] monomer affected only the Km

For data set [3], the target named is Oryza sativa dioxygenase for auxin oxidation (OsDAO) (rice (Oryza sativa)) (UniProt Q7XKU5).

Substitutions are numbered along the chain they refer to. In names and notes the source's numbering stands.

B1: OsGA2ox3 (GA 2-oxidase 3) (Oryza sativa Japonica Group; F100A/R97A) (protein)
chain: MVVLAGPPAVDHIPLLRSPDPGDVFSGVPVVDLGSPGAARAVVDACERYGFFKVVNHGVATDTMDKAESEAVRFFSQTQPDKDRSGPAYPFGYGSKAIGANGDMGWLEYLLLALDDASLADACTVPSCAVFRAALNEYISGVRKVAVRVMEAMSEGLGIAQADALSALVTAEGSDQVFRVNHYPPCRALQGLGCSVTGFGEHTDPQLVSVLRSNGTSGLQIALRDGQWVSVPSDRDSFFVNVGDSLQVLTNGRFKSVKHRVVANSLKSRVSFIYFGGPPLAQRIAPLPQLLGEGEQSLYKEFTWDEYKKAAYKSRLGDNRLAQFEKK
notes: full-length coding region in pGEX6P1, GST tag cut off with PreScission protease, E. coli Rosetta (DE3) pLysS; monomer, homotetramer with GA4
For B1, the Km in the data set “GC-SIM-MS of GA34 [1]” is on record as 0.52 ± 0.10 (tetramer) μM.

B2: OsGA2ox3 (GA 2-oxidase 3) (Oryza sativa Japonica Group; C186A/W106A) (protein)
chain: B1 chain with A97R, A100F, W106A, C186A
notes: as for B1
For the molecule B2, in the data set “GC-SIM-MS of GA34 [2]”, the Km is 5.41 ± 0.96 (monomer) μM.

B3: Oryza sativa dioxygenase for auxin oxidation (OsDAO) (enzyme)
chain: MVEIPAIDLRLAGGGGGAEETARLRDACARLGCFRVSGHGVPPGLQAEMKAAVRALFDLPDDAKRRNADIIPGSGYVPPGTANPLYEAFGLCDAAAPADVDAFCARLDAPPHVRETVKAYAERMHSLIVDVAGKVAASLGLHGASFQDWPCQFRMNRYNYTQDSVGSPGVQVHTDSGFLTVLQEDECVGGLEVLDPAAGEFVPVDPLPGSFVVNVGDVGQAWSNGRLHNVKHRVQCVAAVPRVSIAMFLLAPKDDTVSAPGELVDGEHPRRYREFKYDDYRRLRLSTGERAGEALARLAA
Regarding B3, the Vmax of the dimer against the monomer (forms separated by gel filtration) in data set [3] was found to be 22 fold.

For the origin of these results see article PMC7195466, “A common allosteric mechanism regulates homeostatic inactivation of auxin and gibberellin” (Nature Communications, 2020).
